In publication PMC9601775 (Protein Science : A Publication of the Protein Society, 2022) one finds Kd, koff and kon data, which are given here for 7 molecules.

One may read the Kd as the constant that tells how readily two partners part at equilibrium. A word on the koff: it is a measure of how fast the partners let go of each other. One may read the kon as the second-order rate constant of association. A low value points to slow association.

What all share (test): SPR; Biacore 8K; EGFR extracellular domain immobilised on CM5 chip by amine coupling (~1000 RU); VHHs injected in two-fold serial dilutions at 30 μl/min; 25°C; PBS with 0.005% Tween20
Conditions in all cases: both partners purified
Background: Surface plasmon resonance follows binding to a sensor surface in real time, without labels.

Test [1] addresses T1, extracellular domain of epidermal growth factor receptor (EGFR), residues 1–618 (Homo sapiens (; human EGFR in …, UniProt P00533).
T1 construct: Epidermal growth factor receptor (EGFR), extracellular domain, residues 1-618; also called extracellular domain of EGFR; source: Sf9 expression system (baculovirus), purified from the culture supernatant (Ni-NTA, SEC)

In test [2] the target is T1, extracellular domain of epidermal …. The source holds these as a separate data set.
Test [3] has the same target. This is another data set of the same source.

Positions count from the first letter of the chain named. In names and notes the source's numbering stands.

B1: 7D12‐Vob Y42F (VHH)
VHH: EVQLVESGGGLVQPGGSLRLSCAASGRTSRSYGMGWFRQAPGKGRELVAGISWRGDSTGYADSVKGRFTISRDNAKNTLYLQMNSLRPEDTAVYYCAFAAGSAWYGTLYEYDYWGQGTLVTVSS
notes: PDB 7XL1) with the stated change; IMGT numbering; source: E. coli BL21(DE3), periplasmic fraction, purified (Ni-NTA, SEC)
In test [1], B1 displayed an equilibrium dissociation constant (Kd) of 191 nM, a koff of 0.137 s⁻¹ and a kon of 713000 M⁻¹ s⁻¹.

B2: 7D12‐Vob Y42F‐L52F (VHH)
VHH: B1 VHH with L47F
notes: PDB 7XL1) with the stated changes; IMGT numbering; source: E. coli BL21(DE3), periplasmic fraction, purified (Ni-NTA, SEC)
In test [1], B2 displayed a Kd of 110 nM, an off-rate constant (koff) of 0.0799 s⁻¹ and a kon of 729000 M⁻¹ s⁻¹.

B3: 7D12‐Vob F106A (VHH)
VHH: B1 VHH with F37Y, F98A
notes: as for B1
Regarding B3, in test [1], the equilibrium dissociation constant (Kd) stood at 482 nM, the koff was 0.152 s⁻¹ and the kon was 316000 M⁻¹ s⁻¹.

B4: 7D12‐Vob (VHH)
VHH: B1 VHH with F37Y
notes: CDRs of 7D12 grafted onto the framework regions of Vobarilizumab; PDB 7XL1; also called chimeric VHH; source: E. coli BL21(DE3), periplasmic fraction, purified (Ni-NTA, SEC)
In test [2], B4 came in with an equilibrium dissociation constant (Kd) of 1450 nM, a koff of 0.247 s⁻¹ and a kon of 169000 M⁻¹ s⁻¹.

B5: 7D12‐Vob L52F (VHH)
VHH: B1 VHH with F37Y, L47F
notes: as for B1
B5: in test [1], binding was put at a Kd of 358 nM, the koff is 0.123 s⁻¹ and the association rate constant (kon) turned out to be 344000 M⁻¹ s⁻¹.

B6: 7D12‐Vob Y42F‐L52F‐F106A (VHH)
VHH: B1 VHH with L47F, F98A
notes: PDB 7XL1) with the stated changes; IMGT numbering; also called triple mutant; source: E. coli BL21(DE3), periplasmic fraction, purified (Ni-NTA, SEC)
For B6, in test [1], the Kd worked out at 38 nM, the off-rate constant (koff) stood at 0.0693 s⁻¹ and the kon came to 1.82e+06 M⁻¹ s⁻¹.

B7: 7D12‐Vob E1Q‐Y42F‐L52F‐F106A (VHH)
VHH: B1 VHH with E1Q, L47F, F98A
notes: PDB 7XL1) with the stated changes; IMGT numbering; also called quadruple mutant; source: E. coli BL21(DE3), periplasmic fraction, purified (Ni-NTA, SEC)
As to B7, in test [3], the Kd is 4.7 nM.
